Source: paper PMC3591310, “Characterization and Functional Analysis of Four Glutathione S-Transferases from the Migratory Locust, Locusta migratoria” (PLoS ONE, 2013)
Read-outs that look alike come from different tables or passages of the source.

What was measured:
[1] = molecular target: T1, LmGSTs5 (Locusta migratoria, UniProt F4YUJ4); assay: GSH conjugation, absorbance […] nm, non-linear regression; type: biochemical; conditions: read-out: CDNB / Km; 5 mM GSH, pH 7.5, 28°C; apparent
T1 construct: E. coli JM109
T1 sequence (F4YUJ4 1-202): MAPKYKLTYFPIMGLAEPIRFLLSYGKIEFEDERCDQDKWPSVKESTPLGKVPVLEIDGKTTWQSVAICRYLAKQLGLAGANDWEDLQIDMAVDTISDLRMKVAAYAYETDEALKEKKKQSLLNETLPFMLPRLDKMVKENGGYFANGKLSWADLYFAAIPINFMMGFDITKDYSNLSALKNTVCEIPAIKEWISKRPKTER

[2] = molecular target: T2, LmGSTu1 (Locusta migratoria, UniProt F4YUI9); assay: as above; type: biochemical; conditions: read-out: CDNB / Km; 5 mM GSH, pH 7.5, 28°C; apparent
T2 construct: E. coli BL21 (DE3)
T2 sequence (F4YUI9 1-214): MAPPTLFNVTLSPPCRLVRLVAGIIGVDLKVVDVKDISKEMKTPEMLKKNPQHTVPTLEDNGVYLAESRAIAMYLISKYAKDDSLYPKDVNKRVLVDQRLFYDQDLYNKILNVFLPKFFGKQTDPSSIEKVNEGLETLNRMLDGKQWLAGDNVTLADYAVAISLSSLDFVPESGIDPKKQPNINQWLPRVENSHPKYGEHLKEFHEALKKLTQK

[3] = molecular target: T3, LmGSTt1 (Locusta migratoria, UniProt F4YUJ7); assay: as above; type: biochemical; conditions: read-out: CDNB / Km; 5 mM GSH, pH 7.5, 28°C; apparent
T3 construct: E. coli BL21 (DE3)
T3 sequence (F4YUJ7 1-231): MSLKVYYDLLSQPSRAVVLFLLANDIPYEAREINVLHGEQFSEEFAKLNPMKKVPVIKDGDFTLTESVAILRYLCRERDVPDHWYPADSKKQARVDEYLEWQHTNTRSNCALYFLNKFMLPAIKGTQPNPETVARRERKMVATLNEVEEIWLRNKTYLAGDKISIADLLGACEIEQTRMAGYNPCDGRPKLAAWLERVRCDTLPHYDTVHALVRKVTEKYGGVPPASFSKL

[4] = molecular target: T4, LmGSTd1 (Locusta migratoria, UniProt E7BTM5); assay: as above; type: biochemical; conditions: read-out: CDNB / Km; 5 mM GSH, pH 7.5, 28°C; apparent
T4 construct: E. coli JM109
T4 sequence (E7BTM5 1-218): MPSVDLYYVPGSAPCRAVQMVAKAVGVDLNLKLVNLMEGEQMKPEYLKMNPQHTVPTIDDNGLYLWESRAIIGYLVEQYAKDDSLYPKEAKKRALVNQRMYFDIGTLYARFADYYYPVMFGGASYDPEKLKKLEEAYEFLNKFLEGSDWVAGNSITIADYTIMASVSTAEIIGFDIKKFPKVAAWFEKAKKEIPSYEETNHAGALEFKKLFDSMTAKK

[5] = molecular target: T4, LmGSTd1; assay: inhibition of CDNB-GSH conjugation, absorbance […] nm; type: biochemical; conditions: read-out: I50
[6] = molecular target: T1, LmGSTs5; assay: as above; type: biochemical; conditions: read-out: I50
[7] = molecular target: T2, LmGSTu1; assay: as above; type: biochemical; conditions: read-out: I50
[8] = molecular target: T3, LmGSTt1; assay: as above; type: biochemical; conditions: read-out: I50
[9] = substrate: O=[N+]([O-])c1ccc(CCl)cc1; assay: purified protein; conditions: 5 mM GSH, pH 7.5, 28°C, apparent
[10] = substrate: O=[N+]([O-])c1ccc(Cl)c(Cl)c1; assay: purified protein; conditions: 5 mM GSH, pH 7.5, 28°C, apparent
[11] = substrate: O=[N+]([O-])c1ccc(Cl)c(Cl)c1; assay: purified protein; type: biochemical, Locusta migratoria; conditions: 5 mM GSH, pH 7.5, 28°C, apparent
[12] = substrate: O=[N+]([O-])c1ccc(CCl)cc1; assay: purified protein; type: biochemical, Locusta migratoria; conditions: 5 mM GSH, pH 7.5, 28°C, apparent
[13] = 2 mM CDNB, 5 mM GSH, 0.1 M phosphate pH 7.5, 28°C

**Q.** Which Km [1] does the source give for `O=[N+]([O-])c1ccc(Cl)c([N+](=O)[O-])c1` [CDNB, 1-chloro-2,4-dinitrobenzene] here?
**A.** Its Km is 1170 ± 290 µM.

**Q.** And the Km [2]?
**A.** The Km was 250 ± 25 µM.

**Q.** What about the Km [3] of the same molecule?
**A.** The Km was 4730 ± 350 µM.

**Q.** What about the Km [4] of the same molecule?
**A.** The Km was 500 ± 25 µM.

**Q.** What does the source list for `C=C(CC)C(=O)c1ccc(OCC(=O)O)c(Cl)c1Cl` [ethacrynic acid]?
**A.** IC50 [5]: 2.2 µM; IC50 [6]: 33.8 µM; IC50 [7]: 3.27 µM; IC50 [8]: 4.7 µM

**Q.** Which results are given for reactive blue?
**A.** IC50 [5, 13]: 4.58 µM; IC50 [6, 13]: 0.98 µM; IC50 [7, 13]: 3.4 µM; IC50 [8, 13]: 12.4 µM

B1: LmGSTt1 (Locusta migratoria) (protein)
chain: MSLKVYYDLLSQPSRAVVLFLLANDIPYEAREINVLHGEQFSEEFAKLNPMKKVPVIKDGDFTLTESVAILRYLCRERDVPDHWYPADSKKQARVDEYLEWQHTNTRSNCALYFLNKFMLPAIKGTQPNPETVARRERKMVATLNEVEEIWLRNKTYLAGDKISIADLLGACEIEQTRMAGYNPCDGRPKLAAWLERVRCDTLPHYDTVHALVRKVTEKYGGVPPASFSKL
**Q.** With B1 as the molecule, how does the Km [9] read?
**A.** Its Km is 7850 ± 1080 µM.

**Q.** And the Vmax [9]?
**A.** Its Vmax is 0.00143 µmol/min/mg.

B2: LmGSTs5 (Locusta migratoria) (protein)
chain: MAPKYKLTYFPIMGLAEPIRFLLSYGKIEFEDERCDQDKWPSVKESTPLGKVPVLEIDGKTTWQSVAICRYLAKQLGLAGANDWEDLQIDMAVDTISDLRMKVAAYAYETDEALKEKKKQSLLNETLPFMLPRLDKMVKENGGYFANGKLSWADLYFAAIPINFMMGFDITKDYSNLSALKNTVCEIPAIKEWISKRPKTER
**Q.** What does the source list for B2?
**A.** Km [10]: 1730 ± 240 µM; Vmax [10]: 0.00741 µmol/min/mg; Km [9]: 470 ± 83 µM; Vmax [9]: 0.156 µmol/min/mg

B3: LmGSTd1 (Locusta migratoria) (protein)
chain: MPSVDLYYVPGSAPCRAVQMVAKAVGVDLNLKLVNLMEGEQMKPEYLKMNPQHTVPTIDDNGLYLWESRAIIGYLVEQYAKDDSLYPKEAKKRALVNQRMYFDIGTLYARFADYYYPVMFGGASYDPEKLKKLEEAYEFLNKFLEGSDWVAGNSITIADYTIMASVSTAEIIGFDIKKFPKVAAWFEKAKKEIPSYEETNHAGALEFKKLFDSMTAKK
notes: E. coli JM109
**Q.** How did the Km [11] turn out when B3 was run?
**A.** The Km was 1000 ± 87 µM.

**Q.** What about the Vmax [11] of the same molecule?
**A.** Its Vmax is 0.0004 µmol/min/mg.

**Q.** What about the Km [12] of the same molecule?
**A.** Its Km is 6380 ± 570 µM.

**Q.** What about the Vmax [12] of the same molecule?
**A.** The Vmax was 0.049 µmol/min/mg.

B4: LmGSTu1 (Locusta migratoria) (protein)
chain: MAPPTLFNVTLSPPCRLVRLVAGIIGVDLKVVDVKDISKEMKTPEMLKKNPQHTVPTLEDNGVYLAESRAIAMYLISKYAKDDSLYPKDVNKRVLVDQRLFYDQDLYNKILNVFLPKFFGKQTDPSSIEKVNEGLETLNRMLDGKQWLAGDNVTLADYAVAISLSSLDFVPESGIDPKKQPNINQWLPRVENSHPKYGEHLKEFHEALKKLTQK
**Q.** For B4, which Km [10] is on record?
**A.** Its Km is 730 ± 64 µM.

**Q.** What about the Vmax [10] of the same molecule?
**A.** The Vmax was 0.00098 µmol/min/mg.

**Q.** And the Km [9]?
**A.** The Km was 1580 ± 170 µM.

**Q.** And the Vmax [9]?
**A.** Its Vmax is 0.00677 µmol/min/mg.
